Ends that are not written are not given here.

Common to all, as to assay type: biochemical
One test addresses T1, MMP-2 (Homo sapiens, UniProt P08253).
T1 sequence (P08253 110-660): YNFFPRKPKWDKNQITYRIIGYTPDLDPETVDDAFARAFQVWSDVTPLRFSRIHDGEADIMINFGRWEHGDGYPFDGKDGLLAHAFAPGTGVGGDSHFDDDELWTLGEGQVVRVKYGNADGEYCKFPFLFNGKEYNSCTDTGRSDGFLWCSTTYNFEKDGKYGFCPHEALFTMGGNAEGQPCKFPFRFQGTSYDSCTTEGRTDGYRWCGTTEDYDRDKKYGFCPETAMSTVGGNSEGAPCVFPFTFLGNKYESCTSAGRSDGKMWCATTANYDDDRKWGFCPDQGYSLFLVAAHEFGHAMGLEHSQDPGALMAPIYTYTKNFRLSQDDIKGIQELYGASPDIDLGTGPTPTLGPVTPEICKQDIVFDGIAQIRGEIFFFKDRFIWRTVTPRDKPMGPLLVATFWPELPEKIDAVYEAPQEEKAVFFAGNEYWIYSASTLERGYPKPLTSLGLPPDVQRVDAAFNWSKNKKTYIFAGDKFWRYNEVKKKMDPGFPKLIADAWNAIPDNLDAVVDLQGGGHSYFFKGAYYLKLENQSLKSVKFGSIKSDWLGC
Description: specificity of peptide: digestion by MMP-2. The conditions noted are these: peptide as substrate. The source says:
(§1) They have also shown that the peptide is very specific and is not digested by MMP-2 enzyme MMP-3 or MMP-7 enzymes. FRET sensitized fluorescence detection proves to be very effective detection approach. Similar specific peptide sequences have been developed for MMP-2, MMP-7 and more. To make highly confident assessment of various proteases activities directly in cells and tissue it is necessary to have single molecular probe capable for simultaneous analysis/detection of more than one protease. The present invention includes methods for developing and constructing a new probe that will be capable of simultaneous detection of activities of two proteases (like MMP-2 and MMP-9) at the same time and the same place by the same molecule (molecular construct). […] The probe is constructed in a way to force two sequential steps of energy transfer process. First step (FRET 1), is mediated through the cleavable linker specific to enzyme 1 (for example MMP-9) and occurs between the first energy donor and first acceptor (acceptor is a central body). Second step (FRET 2), is between the first acceptor that becomes donor to the second acceptor. The second donor and second acceptor are separated by linker specific to enzyme 2 (for example MMP-2). A highly efficient well-defined sequential FRET process offers distinctive signatures for recognizing two proteins activities. […]

The target in the next test is MMP-9 (Homo sapiens, UniProt P14780). Description: FRET-based detection of peptide cleavage by MMP-9. From the text:
Matrix metalloproteinases (MMPs) are involved in major human diseases such as cancer, AIDS, and inflammation. Therefore, sensitive detection and imaging of MMPs activities offer great clinical value to cancer detection, treatment, and therapy monitoring. Among many successful approaches that utilize peptide chemistry Förster resonance energy transfer (FRET) offers high potential for development of in-vitro and in-vivo proteases assays. Recently we developed and tested a specific peptide sequence that is a substrate for MMP-9 (Lys-Gly-Pro-Arg-Ser-Leu-Ser-Gly-Lys) (SEQ ID NO.: 3) (FIG. 4), which is cleaved into Lys-Gly-Pro-Arg-Ser (SEQ ID NO.: 4) and Leu-Ser-Gly-Lys (SEQ ID NO.: 5). Other non-limiting sequence targets can include, e.g., peptide substrates for a consensus for MMP-2 (Lys-Gly-Ser-Gly-Pro-Tyr-Val-Ile-Trp-Leu-Gly-Lys) (SEQ ID NO.: 6) (SEQ ID NO.: 7). In this approach, one end of the specific peptide was labeled with a donor and the other with an acceptor chromophore. A selective cleavage of this specific peptide sequence by MMP-9 protease results in the separation of the two segments of oligopeptide carrying the donor and acceptor and consequently leads to significant increase of donor signal and decrease in acceptor signal. A ratiometric approach allows excellent dynamic range for detection that produces an almost 60 fold change when going from intact to completely cleaved peptide.
They have also shown that the peptide is very specific and is not digested by MMP-2 enzyme MMP-3 or MMP-7 enzymes. FRET sensitized fluorescence detection proves to be very effective detection approach. Similar specific peptide sequences have been developed for MMP-2, MMP-7 and more. To make highly confident assessment of various proteases activities directly in cells and tissue it is necessary to have single molecular probe capable for simultaneous analysis/detection of more than one protease. […]

A further test has as its target MMP-3 (Homo sapiens, UniProt P08254). Description: specificity of peptide: digestion by MMP-3. The conditions noted are these: peptide as substrate.
Description: as §1

A further test addresses T2, MMP-7 (Homo sapiens, UniProt P09237).
T2 sequence (P09237 95-267): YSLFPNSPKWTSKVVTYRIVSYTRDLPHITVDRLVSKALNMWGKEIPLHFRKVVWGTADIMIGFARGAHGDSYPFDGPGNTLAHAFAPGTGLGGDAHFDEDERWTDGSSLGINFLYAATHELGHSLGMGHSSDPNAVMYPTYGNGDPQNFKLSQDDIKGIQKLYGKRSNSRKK
Description: specificity of peptide: digestion by MMP-7. Particulars: peptide as substrate.
Description: as §1

Chain of MMP-9 (P14780 94-707): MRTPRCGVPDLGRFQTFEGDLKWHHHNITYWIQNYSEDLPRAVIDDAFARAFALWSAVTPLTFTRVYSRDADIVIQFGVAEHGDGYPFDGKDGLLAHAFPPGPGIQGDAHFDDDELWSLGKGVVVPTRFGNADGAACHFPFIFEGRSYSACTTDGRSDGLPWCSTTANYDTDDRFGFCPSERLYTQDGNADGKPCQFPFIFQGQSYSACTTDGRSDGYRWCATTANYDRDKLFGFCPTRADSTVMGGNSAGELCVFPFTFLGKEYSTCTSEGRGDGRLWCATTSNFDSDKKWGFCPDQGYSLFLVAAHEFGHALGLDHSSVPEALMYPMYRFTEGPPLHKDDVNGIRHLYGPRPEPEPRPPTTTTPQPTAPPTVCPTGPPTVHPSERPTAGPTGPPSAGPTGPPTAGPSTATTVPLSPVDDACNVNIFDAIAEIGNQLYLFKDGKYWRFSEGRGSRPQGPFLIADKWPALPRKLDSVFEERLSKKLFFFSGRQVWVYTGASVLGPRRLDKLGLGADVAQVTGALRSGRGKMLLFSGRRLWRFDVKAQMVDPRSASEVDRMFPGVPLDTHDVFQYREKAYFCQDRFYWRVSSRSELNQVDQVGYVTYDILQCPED
Chain of MMP-3 (P08254 100-477): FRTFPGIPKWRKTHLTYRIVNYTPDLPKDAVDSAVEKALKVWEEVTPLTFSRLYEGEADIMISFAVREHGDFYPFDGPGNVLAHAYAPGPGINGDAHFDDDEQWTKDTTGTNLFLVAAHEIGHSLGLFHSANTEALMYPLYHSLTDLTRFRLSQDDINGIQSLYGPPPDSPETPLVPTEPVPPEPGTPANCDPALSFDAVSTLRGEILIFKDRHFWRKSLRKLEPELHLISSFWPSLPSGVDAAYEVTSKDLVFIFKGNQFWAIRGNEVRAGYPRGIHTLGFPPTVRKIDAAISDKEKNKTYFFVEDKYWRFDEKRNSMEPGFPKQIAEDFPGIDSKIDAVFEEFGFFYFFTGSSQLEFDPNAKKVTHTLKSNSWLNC

Regarding “Lys-Gly-Pro-Arg-Ser-Leu-Ser-Gly-Lys (KGPRSLSGK; also: donor and acceptor labels) [labeled with donor on one end and acceptor on the other]”, in the test with MMP-2, the “digestion of the peptide by MMP-2 enzyme” value is “not digested”. The “cleavage of the peptide by MMP-9” value with MMP-9 (peptide as substrate) was “very effectively cleaves”. Moreover, in the test with MMP-9 (peptide labeled with donor and acceptor, intact, before addition of MMP-9), the FRET when intact is on record as more than 90%. In the test with MMP-9 (peptide labeled with donor on one end and acceptor on the other, cleaved by MMP-9), the “ratiometric change (donor/acceptor signal) going from intact to completely cleaved peptide” value is given as approximately 60 fold. Besides, the “digestion of the peptide by MMP-3 enzyme” value with MMP-3 is given as “not digested”. The “digestion of the peptide by MMP-7 enzyme” value with MMP-7 was “not digested”.

The values above are taken from patent US9388450B2, “FRET based multiplex probes” (University of North Texas Health Science Center at Fort …, priority 2013, dated 2016).
